Test results: FireProtDB (doi:10.1021/bi00067a022)

Details: Bacillus amyloliquefaciens, pH 6.3, 25 °C, Fluorescence, MES 450 mM, reversible: yes, whole UniProt chain shown

B1: Ribonuclease wild type, P00648 (protein)
chain: MMKMEGIALKKRLSWISVCLLVLVSAAGMLFSTAAKTETSSHKAHTEAQVINTFDGVADYLQTYHKLPDNYITKSEAQALGWVASKGNLADVAPGKSIGGDIFSNREGKLPGKSGRTWREADINYTSGFRNSDRILYSSDWLIYKTTDHYQTFTKIR
- denaturant m value (GdnHCl): 4.4 kcal/mol/M
- denaturant midpoint (higher = more stable) (GdnHCl): 2 M
- unfolding free energy (GdnHCl): 8.8 kcal/mol
- denaturant m value (Urea): 1.92 kcal/mol/M
- denaturant midpoint (higher = more stable) (Urea): 4.58 M
- unfolding free energy (Urea): 8.79 kcal/mol
